From patent US20170246252A1 come the findings set out here.

The assay has as its target endogenous mIL-10 receptors (R1 and R2) on MC/9 mouse mast cells (mouse) (UniProt Q61727). In words: cell-based or functional assay.
Chain of UniProt Q61727 (Q61727 17-575, chain 1 of 2): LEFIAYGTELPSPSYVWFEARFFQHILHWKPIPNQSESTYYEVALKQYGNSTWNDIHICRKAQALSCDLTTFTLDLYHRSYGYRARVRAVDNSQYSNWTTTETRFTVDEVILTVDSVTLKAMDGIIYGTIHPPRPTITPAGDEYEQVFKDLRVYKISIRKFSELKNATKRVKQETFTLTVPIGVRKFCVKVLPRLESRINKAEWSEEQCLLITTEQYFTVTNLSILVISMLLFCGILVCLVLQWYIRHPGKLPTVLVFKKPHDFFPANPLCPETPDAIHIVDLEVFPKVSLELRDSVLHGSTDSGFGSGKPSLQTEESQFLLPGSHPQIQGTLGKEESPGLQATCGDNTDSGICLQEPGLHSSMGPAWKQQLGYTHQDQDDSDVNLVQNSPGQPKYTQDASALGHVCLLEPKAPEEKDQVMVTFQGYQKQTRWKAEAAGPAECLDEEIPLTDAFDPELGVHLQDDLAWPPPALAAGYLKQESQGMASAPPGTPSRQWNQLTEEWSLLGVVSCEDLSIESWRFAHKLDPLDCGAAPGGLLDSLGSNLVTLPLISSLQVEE
Chain of UniProt Q61727 (Q61190 20-349, chain 2 of 2, further chain): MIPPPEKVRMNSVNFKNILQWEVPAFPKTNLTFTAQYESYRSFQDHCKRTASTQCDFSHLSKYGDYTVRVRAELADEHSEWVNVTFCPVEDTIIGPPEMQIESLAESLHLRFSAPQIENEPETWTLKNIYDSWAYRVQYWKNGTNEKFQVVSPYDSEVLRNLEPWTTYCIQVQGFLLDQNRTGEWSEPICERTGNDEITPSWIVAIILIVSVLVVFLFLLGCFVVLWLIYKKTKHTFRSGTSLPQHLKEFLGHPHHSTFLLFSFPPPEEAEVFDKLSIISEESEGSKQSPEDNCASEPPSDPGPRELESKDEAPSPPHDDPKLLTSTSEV

Regarding “Murine IL-10 (from UniProt P18893 19-178) (ligand)”, the EC50 (ng/mL) in MC/9 Assay (proliferation with mIL-4 co-stimulation, Alamar Blue) was found to be 0.571 ng/mL.

With “PEG-mIL-10 (from UniProt P18893 19-178) (ligand)”, the EC50 (ng/mL) in MC/9 Assay (proliferation with mIL-4 co-stimulation, Alamar Blue) was 4.04 ng/mL and the specific activity in the MC/9 bioassay relative to mIL-10 is 7 fold lower.
